According to patent US20250144178A1, “PHARMACEUTICAL COMPOSITION FOR CANCER TREATMENT COMPRISING FUSION PROTEIN INCLUDING IL-12 AND ANTI-FAP ANTIBODY AND ANTICANCER AGENT” (KANAPH THERAPEUTICS INC., priority 2022, published 2025):

Key:
[1] = molecular target: B16F10; experiment: flow cytometry on parental B16F10 cells, anti-mouse IgG2a antibody alone
[2] = molecular target: mouse FAP (fibroblast activation protein alpha) overexpressed in B16F10 cells (B16F10-mFAP) (mouse) (UniProt P97321); experiment: flow cytometry on B16F10-mFAP cells, anti-mouse IgG2a antibody alone
[3] = molecular target: IL-12 receptor of human T cells (human) (UniProt P42701); experiment: cell-based or functional assay
[4] = molecular target: human FAP (fibroblast activation protein alpha) overexpressed in HEK293 cells (HEK293-hFAP) (human) (UniProt Q12884); experiment: flow cytometry on HEK293-hFAP cells, anti-human IgG antibody alone
human FAP (fibroblast activation protein alpha) overexpressed in HEK293 cells (HEK293-hFAP) (human), sequence (Q12884 whole entry): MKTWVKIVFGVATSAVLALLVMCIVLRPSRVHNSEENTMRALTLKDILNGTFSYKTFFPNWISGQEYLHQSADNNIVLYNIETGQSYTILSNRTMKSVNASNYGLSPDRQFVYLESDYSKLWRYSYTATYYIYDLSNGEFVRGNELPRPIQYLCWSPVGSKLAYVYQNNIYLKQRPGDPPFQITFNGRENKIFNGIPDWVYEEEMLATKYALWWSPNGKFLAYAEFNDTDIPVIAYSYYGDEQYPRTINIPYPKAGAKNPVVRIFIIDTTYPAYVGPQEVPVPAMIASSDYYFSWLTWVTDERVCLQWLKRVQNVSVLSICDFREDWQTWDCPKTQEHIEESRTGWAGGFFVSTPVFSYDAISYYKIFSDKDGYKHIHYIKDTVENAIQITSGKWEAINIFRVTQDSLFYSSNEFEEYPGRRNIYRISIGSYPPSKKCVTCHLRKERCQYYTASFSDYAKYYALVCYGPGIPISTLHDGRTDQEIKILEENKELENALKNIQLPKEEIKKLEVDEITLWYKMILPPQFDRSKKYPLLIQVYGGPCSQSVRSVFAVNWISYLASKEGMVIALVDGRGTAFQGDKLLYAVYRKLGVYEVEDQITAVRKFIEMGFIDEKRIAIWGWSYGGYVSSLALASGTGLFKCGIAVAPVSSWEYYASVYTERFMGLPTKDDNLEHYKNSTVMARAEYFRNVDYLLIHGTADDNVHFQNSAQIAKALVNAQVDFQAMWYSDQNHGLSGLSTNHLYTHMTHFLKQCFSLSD

mouse FAP (fibroblast activation protein alpha) overexpressed in B16F10 cells (B16F10-mFAP) (mouse), sequence (P97321 whole entry): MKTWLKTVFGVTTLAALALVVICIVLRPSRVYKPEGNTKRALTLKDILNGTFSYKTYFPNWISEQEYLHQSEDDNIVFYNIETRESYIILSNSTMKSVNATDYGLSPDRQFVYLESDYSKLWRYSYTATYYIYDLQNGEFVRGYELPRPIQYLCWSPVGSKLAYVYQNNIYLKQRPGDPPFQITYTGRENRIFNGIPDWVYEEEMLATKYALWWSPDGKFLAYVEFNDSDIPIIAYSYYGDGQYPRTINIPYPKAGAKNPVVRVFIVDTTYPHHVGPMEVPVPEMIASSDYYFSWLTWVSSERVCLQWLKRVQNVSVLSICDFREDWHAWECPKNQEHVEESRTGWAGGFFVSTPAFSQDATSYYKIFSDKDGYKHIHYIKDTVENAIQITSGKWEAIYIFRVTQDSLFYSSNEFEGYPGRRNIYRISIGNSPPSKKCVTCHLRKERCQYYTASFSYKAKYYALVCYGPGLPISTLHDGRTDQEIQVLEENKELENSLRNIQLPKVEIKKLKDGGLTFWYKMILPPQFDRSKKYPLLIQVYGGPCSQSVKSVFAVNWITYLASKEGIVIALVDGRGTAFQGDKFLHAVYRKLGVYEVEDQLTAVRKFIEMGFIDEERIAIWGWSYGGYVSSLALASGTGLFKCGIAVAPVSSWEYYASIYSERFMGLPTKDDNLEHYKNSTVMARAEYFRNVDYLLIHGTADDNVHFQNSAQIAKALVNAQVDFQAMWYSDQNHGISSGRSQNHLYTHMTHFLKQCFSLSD
IL-12 receptor of human T cells (human), sequence (Q99665 24-862, chain 2 of 2, other chains not shown): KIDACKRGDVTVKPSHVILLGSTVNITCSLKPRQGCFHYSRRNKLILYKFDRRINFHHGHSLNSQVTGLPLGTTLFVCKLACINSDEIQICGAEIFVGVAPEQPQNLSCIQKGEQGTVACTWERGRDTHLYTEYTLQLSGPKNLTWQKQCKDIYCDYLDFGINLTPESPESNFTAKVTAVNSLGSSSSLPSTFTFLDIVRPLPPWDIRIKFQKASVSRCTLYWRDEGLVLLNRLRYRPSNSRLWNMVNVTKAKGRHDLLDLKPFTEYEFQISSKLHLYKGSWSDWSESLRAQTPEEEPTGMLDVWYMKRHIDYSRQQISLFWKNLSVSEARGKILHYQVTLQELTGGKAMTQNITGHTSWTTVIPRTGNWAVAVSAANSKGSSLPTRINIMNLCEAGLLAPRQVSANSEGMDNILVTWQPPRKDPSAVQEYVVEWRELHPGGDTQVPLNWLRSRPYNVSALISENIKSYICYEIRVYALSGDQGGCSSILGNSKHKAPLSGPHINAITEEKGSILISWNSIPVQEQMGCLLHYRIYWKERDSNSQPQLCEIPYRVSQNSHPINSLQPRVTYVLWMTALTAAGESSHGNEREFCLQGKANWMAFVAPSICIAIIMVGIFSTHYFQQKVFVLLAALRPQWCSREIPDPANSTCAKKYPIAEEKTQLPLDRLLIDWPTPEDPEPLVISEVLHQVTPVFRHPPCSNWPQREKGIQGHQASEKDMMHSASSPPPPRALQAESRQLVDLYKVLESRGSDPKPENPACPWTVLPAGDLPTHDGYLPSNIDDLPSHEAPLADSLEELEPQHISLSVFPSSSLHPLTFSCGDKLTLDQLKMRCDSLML

With 2nd Ab only (antibody) the percent of cells in the positive gate (mFAP-PE) [1] was 1.04% and the percent of cells in the positive gate (mFAP-PE) [2] was 3.44%.
For “recombinant human IL-12 (from UniProt P29459 23-219; P29460 23-328) (ligand)”, the half maximal effective concentration (EC50) of p-STAT4 (Tyr693), AlphaLISA, activated human T cells [3] was 8.95 pM.
In the case of 2nd only (antibody), the percent of cells in the positive gate (hFAP-PE) [4] is reported as 0.16%.
